Data taken from publication PMC1796551, “Breast cancer metastasis suppressor 1 (BRMS1) inhibits osteopontin transcription by abrogating NF-κB activation”.

Experiments:
Conditions in all cases: protein: commercial; chain copies: 2; label: biotin; only one strand given
p50 = p50 (Homo sapiens, UniProt P19838 1-433); assay: EMSA; 10 mM Tris, 50 mM KCl, 1 mM DTT, 5 mM MgCl2, 1 ug poly(dI-dC), 20 fmol biotinylated probe, 100 ng p65 or 66 ng p50, room temperature 30 min; pH not stated
p65 (RelA) [1] = biological target: T1, p65 (RelA) (Homo sapiens, UniProt Q04206 1-551); assay: EMSA; supershift with anti-p65 (lane 6); 10 mM Tris, 50 mM KCl, 1 mM DTT, 5 mM MgCl2, 1 ug poly(dI-dC), 20 fmol biotinylated probe, 100 ng p65 or 66 ng p50, room temperature 30 min; pH not stated
T1 sequence (Q04206 whole entry): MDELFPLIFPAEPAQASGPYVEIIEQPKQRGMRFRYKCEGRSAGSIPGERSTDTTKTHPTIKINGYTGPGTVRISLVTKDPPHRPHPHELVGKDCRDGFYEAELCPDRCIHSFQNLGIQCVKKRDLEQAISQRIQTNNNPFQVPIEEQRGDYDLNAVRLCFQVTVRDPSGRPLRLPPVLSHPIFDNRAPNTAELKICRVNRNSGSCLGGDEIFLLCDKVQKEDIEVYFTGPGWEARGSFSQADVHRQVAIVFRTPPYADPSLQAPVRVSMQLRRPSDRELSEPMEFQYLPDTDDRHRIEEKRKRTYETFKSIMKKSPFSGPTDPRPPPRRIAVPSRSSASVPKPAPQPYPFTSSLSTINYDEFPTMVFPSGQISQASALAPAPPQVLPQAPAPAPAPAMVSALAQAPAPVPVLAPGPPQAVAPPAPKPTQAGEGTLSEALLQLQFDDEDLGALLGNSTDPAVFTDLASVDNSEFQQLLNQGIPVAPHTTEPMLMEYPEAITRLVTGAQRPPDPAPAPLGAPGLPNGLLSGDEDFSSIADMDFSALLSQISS

p65 (RelA) [2] = biological target: T1, p65 (RelA); assay: EMSA; 10 mM Tris, 50 mM KCl, 1 mM DTT, 5 mM MgCl2, 1 ug poly(dI-dC), 20 fmol biotinylated probe, 100 ng p65 or 66 ng p50, room temperature 30 min; pH not stated

p50, sequence (P19838 1-433): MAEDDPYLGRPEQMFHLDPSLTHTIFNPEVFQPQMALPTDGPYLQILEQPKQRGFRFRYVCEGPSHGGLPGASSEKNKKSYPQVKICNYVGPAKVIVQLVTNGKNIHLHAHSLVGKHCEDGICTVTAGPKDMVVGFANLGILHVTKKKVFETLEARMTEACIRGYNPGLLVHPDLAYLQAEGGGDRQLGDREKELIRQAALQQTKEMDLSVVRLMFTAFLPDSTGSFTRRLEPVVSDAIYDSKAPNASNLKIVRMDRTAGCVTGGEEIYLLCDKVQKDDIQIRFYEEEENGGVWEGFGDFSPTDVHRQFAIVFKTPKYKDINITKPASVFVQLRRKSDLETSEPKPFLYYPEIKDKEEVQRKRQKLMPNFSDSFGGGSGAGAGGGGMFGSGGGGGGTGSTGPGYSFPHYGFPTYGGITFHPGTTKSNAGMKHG

B1: OPN/NF-kB (dsDNA)
DNA 1: GAATTTCATGGGGAAGTCCAAATTCTAAG
DNA 2: CTTAGAATTTGGACTTCCCCATGAAATTC
binding result (p50): binds | binding result (p65 (RelA) [1]): binds

B2: Mut OPN/NF-kB (dsDNA)
DNA 1: GAATTTCATGCGGACTTCGAAATTCTAAG
DNA 2: CTTAGAATTTCGAAGTCCGCATGAAATTC
binding result (p50): no binding | binding result (p65 (RelA) [2]): no binding
